Test results published in US20250296984A1, “THERAPEUTIC AND DIAGNOSTIC AGENTS AND USES THEREOF” (priority 2022, published 2025).

Assays:
[1] = biological target: T1, US28 protein from HCMV strain TB40/E on HEK Phoenix Ampho cells (Human cytomegalovirus, UniProt P69332, A8T/D15E/E18L/V24T); test: Flow cytometry, HEK Phoenix Ampho cells transfected with US28 (TB40/E); assay type: binding; details: mock subtracted, fold-difference minus 1, sign = increase or decrease
T1 construct: expressed in transfected cells; host or cells: HEK Phoenix Ampho (ATCC-CRL-3213)
Description: (§1) ii. Materials: • Cells: HEK Phoenix Ampho (ATCC-CRL-3213), p 21. • Staining buffer: PBS with 1% BSA, 2 mM EDTA. • Plasmid: Encoding US28 protein from different HCMV strains: DB; TB40/E; Merlin; and VHL/E. • Blocking: Human TruStain FcX™ (ref 422302). • Live Dead: Invitrogen™ eBioscience™ Fixable Viability Dye eFluor™ 780 (ref 13539140). • Primary antibodies: 7B1F3 (6.76 nM=1 μg/ml); hum7B1F3 (6.76 nM=1 μg/ml).
(§2) The day before transfection, HEK Ampho cells were seeded in a 1×6-well plate with 1×10^6 live cells/well, 2 mL/well. Seeded 4 wells for HEKPhoenix_plasmids. Seeded 2 wells for HEKPhoenix_Mock transfected. Incubated the cells in a 37° C. incubator with >80% relative humidity and 5% CO2.
(§3) After 1 day, cells will have adhered and reached >60% confluency. Removed 700 uL media from each well prior to transfection. Allowed X-tremeGENE™ HP DNA Transfection Reagent, DNA and diluent Opti-MEM® I Reduced Serum Medium to warm to +15° C. to +25° C., and vortexed gently. Placed 100 μL diluent in a sterile tube for each condition. Added 1 μg plasmid DNA. Pipetted gently to mix (DNA was not added for the mock condition): • DB (683.3 ng/μL): 1.46 μL • TB40/E (742.05 ng/μL): 1.35 μL • Merlin (70.78 ng/μL): 14.13 μL • VHL/E (51.87 ng/μL): 19.28 μL
(§4) Added 3 μL X-tremeGENE™ HP DNA Transfection Reagent to the diluted DNA. (3:1 ratio of reagent to DNA). Pipetted gently to mix, then: • 1. […]

[2] = biological target: T2, US28 protein from HCMV strain Merlin on HEK Phoenix Ampho cells (Human cytomegalovirus, UniProt P69332, S330G); test: Flow cytometry, HEK Phoenix Ampho cells transfected with US28 (Merlin); assay type: binding; details: mock subtracted, fold-difference minus 1, sign = increase or decrease
T2 construct: expressed in transfected cells; host or cells: HEK Phoenix Ampho (ATCC-CRL-3213)
Description: as §1, §2, §3, §4

[3] = system: HEKPhoenix_Mock transfected cells; test: Flow cytometry, HEKPhoenix Mock transfected cells; assay type: binding, human; details: antibody concentration 6.76 nM, Myc tag detection
Description: as §1, §2, §3, §4

[4] = biological target: T3, US28 protein from HCMV strain DB on HEK Phoenix Ampho cells (Human cytomegalovirus, UniProt P69332, D170N/D19A); test: Flow cytometry, HEK Phoenix Ampho cells transfected with US28 (DB); assay type: binding; details: mock subtracted, fold-difference minus 1, sign = increase or decrease
T3 construct: expressed in transfected cells; host or cells: HEK Phoenix Ampho (ATCC-CRL-3213)
Description: as §1, §2, §3, §4

B1: 7B1F3-Myc: 7B1F3 labelled with a Myc tag (antibody, V domains shown)
VH: EVQLQQSGAELAKPGASVKMSCKASGYTFTNYWMHWVKQRPGQGLEWIGYVNPRTGYTEYNQKFKDKATLTADKSSRTAYMQLSSLTSEDSAVYSCARILNGTGFAYWGQGTLVTVSA
VL: DIVLTQSPSSLTVSVGEKFTMSCKSSQSLLYSSNQKNYLAWYQQKPGQSPKLLIYWASTRESGVPDRFTGSGSGTDFTLAISSVKPEDLAIYYCQQYYSFPLTFGAGTKLEIK
[1]
  Variation in binding, relative to determined binding to US28 as encoded by VHL/E; TB40/E: +0.14
[2]
  Variation in binding, relative to determined binding to US28 as encoded by VHL/E; Merlin: +0.21
[3]
  Preliminary Binding Data, Mock: 0.06
[4]
  Variation in binding, relative to determined binding to US28 as encoded by VHL/E; DB: +0.64
